In test [1] the target is T1, Antibody No. 465.1.
T1 construct: also called Ab No. 465.1
Briefly: peptide blocking ELISA on plate-bound VISTA, peptide 2 ug/mL. (In general: ELISA stands for enzyme-linked immunosorbent assay.)
Method: (§1) ELISA was used to measure the ability of sequential overlapping 15-mer synthetic peptides from human VISTA to block binding of an antibody to full length VISTA-ECD immobilized on a microtiter plate. Nickel coated ELISA plates were blocked with BSA and bound with 0.5 μg/mL VISTA protein (Human recombinant, produced in HEK 293 cells, SinoBiologics) for 1 h at room temperature. Anti-VISTA antibodies were diluted to 2-fold their EC₅₀ concentrations and pre-incubated at a 1:1 ratio with either 2 μg/mL or 20 μg/mL peptide solution in 0.5% BSA in PBST for 30 min at room temperature. Peptide-bound antibody solutions (50 μL) were added to each microtiter well and incubated for 1 h at room temperature, after which the ELISA plate was washed and processed as described above for standard ELISAs. Data are expressed as a percent reduction in ELISA signal obtained without preincubation with peptide solution.

Test [2] concerns the target Antibody No. 245.1. Described as above.
Method: as §1
Test [3] deals with VSTB174. The description is as above.
Method: as §1
Test [4] has as its target T1, Antibody No. 465.1. The test can be described thus: peptide blocking ELISA on plate-bound VISTA, peptide 20 ug/mL.
Method: as §1
Test [5] deals with Antibody No. 245.1. The description is as above.
Method: as §1
In test [6] the target is VSTB174. The description is as above.
Method: as §1

Chain of VSTB174 (VH, as listed by the source, chain 1 of 2): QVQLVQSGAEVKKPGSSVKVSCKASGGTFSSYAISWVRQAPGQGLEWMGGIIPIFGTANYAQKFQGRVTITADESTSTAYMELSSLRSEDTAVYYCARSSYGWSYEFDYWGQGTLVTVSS
Chain of VSTB174 (VL, as listed by the source, chain 2 of 2): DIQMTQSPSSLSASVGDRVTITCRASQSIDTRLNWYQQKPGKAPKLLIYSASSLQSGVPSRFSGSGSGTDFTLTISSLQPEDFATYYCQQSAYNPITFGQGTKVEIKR

B1: Spiked Peptide 18 (GLESASDHHGNFSIT) (peptide)
peptide: GLESASDHHGNFSIT
notes: synthetic overlapping peptide from human VISTA
Take B1: the “percent reduction in ELISA signal” value with Antibody No. 465.1 [1] was 0%; with Antibody No. 245.1 [2], 3%; with VSTB174 [3], 17%; in the test with Antibody No. 465.1 [4] it was 4%; in the test with Antibody No. 245.1 [5], 3%; in the test with VSTB174 [6], 32%.

B2: Spiked Peptide 12 (PIRNLTFQDLHLHHG) (peptide)
peptide: PIRNLTFQDLHLHHG
notes: as for B1
On to B2, for which the “percent reduction in ELISA signal” value with Antibody No. 465.1 [1] was 9%; with Antibody No. 245.1 [2], 20%; with VSTB174 [3], 52%; with Antibody No. 465.1 [4], 55%; with Antibody No. 245.1 [5], 62%; with VSTB174 [6], 89%.

B3: Spiked Peptide 19 (SDHHGNFSITMRNLT) (peptide)
peptide: SDHHGNFSITMRNLT
notes: as for B1
With B3, the “percent reduction in ELISA signal” value amounted to 3% with Antibody No. 465.1 [1]; 0% with Antibody No. 245.1 [2]; 10% with VSTB174 [3]; 4% with Antibody No. 465.1 [4]; 9% with Antibody No. 245.1 [5]; 28% in the test with VSTB174 [6].

B4: Spiked Peptide 3 (VCPEGQNVTLTCRLL) (peptide)
peptide: VCPEGQNVTLTCRLL
notes: as for B1
B4: the “percent reduction in ELISA signal” value was found to be 2% in the test with Antibody No. 465.1 [1]; 0% with Antibody No. 245.1 [2]; 0% with VSTB174 [3]; 7% in the test with Antibody No. 465.1 [4]; 3% with Antibody No. 245.1 [5]; 37% with VSTB174 [6].

B5: Spiked Peptide 16 (NTSHDLAQRHGLESA) (peptide)
peptide: NTSHDLAQRHGLESA
notes: as for B1
Take B5: the “percent reduction in ELISA signal” value came to 0% with Antibody No. 465.1 [1]; 0% with Antibody No. 245.1 [2]; 10% in the test with VSTB174 [3]; 0% with Antibody No. 465.1 [4]; 14% with Antibody No. 245.1 [5]; 28% with VSTB174 [6].

B6: Spiked Peptide 22 (LLDSGLYCCLVVEIR) (peptide)
peptide: LLDSGLYCCLVVEIR
notes: as for B1
Consider B6, for which the “percent reduction in ELISA signal” value is 0% with Antibody No. 465.1 [1]; 0% in the test with Antibody No. 245.1 [2]; 18% with VSTB174 [3]; 41% with Antibody No. 465.1 [4]; 34% with Antibody No. 245.1 [5]; 75% in the test with VSTB174 [6].

B7: Spiked Peptide 10 (GEVQTCSERRPIRNL) (peptide)
peptide: GEVQTCSERRPIRNL
notes: as for B1
For B7, the “percent reduction in ELISA signal” value was found to be 0% with Antibody No. 465.1 [1]; 0% in the test with Antibody No. 245.1 [2]; 2% with VSTB174 [3]; 4% with Antibody No. 465.1 [4]; 0% in the test with Antibody No. 245.1 [5]; 0% with VSTB174 [6].

B8: Spiked Peptide 14 (HLHHGGHQAANTSHD) (peptide)
peptide: HLHHGGHQAANTSHD
notes: as for B1
As for B8, the “percent reduction in ELISA signal” value with Antibody No. 465.1 [1] came out at 11%; with Antibody No. 245.1 [2], 1%; with VSTB174 [3] it was 20%; in the test with Antibody No. 465.1 [4] it was 43%; in the test with Antibody No. 245.1 [5], 66%; in the test with VSTB174 [6], 79%.

B9: Spiked Peptide 4 (QNVTLTCRLLGPVDK) (peptide)
peptide: QNVTLTCRLLGPVDK
notes: as for B1
In the case of B9, the “percent reduction in ELISA signal” value is 0% in the test with Antibody No. 465.1 [1]; 9% with Antibody No. 245.1 [2]; 5% with VSTB174 [3]; 16% in the test with Antibody No. 465.1 [4]; 25% with Antibody No. 245.1 [5]; 32% with VSTB174 [6].

B10: Spiked Peptide 1 (FKVATPYSLYVCPEG) (peptide)
peptide: FKVATPYSLYVCPEG
notes: as for B1
For the molecule B10, the “percent reduction in ELISA signal” value with Antibody No. 465.1 [1] turned out to be 5%; with Antibody No. 245.1 [2], 2%; with VSTB174 [3], 1%; with Antibody No. 465.1 [4], 7%; with Antibody No. 245.1 [5] it was 0%; in the test with VSTB174 [6] it was 18%.

B11: Spiked Peptide 8 (FYKTWYRSSRGEVQT) (peptide)
peptide: FYKTWYRSSRGEVQT
notes: as for B1
Turning to B11, the “percent reduction in ELISA signal” value with Antibody No. 465.1 [1] turned out to be 0%; with Antibody No. 245.1 [2], 8%; with VSTB174 [3] it was 22%; with Antibody No. 465.1 [4], 0%; with Antibody No. 245.1 [5], 1%; with VSTB174 [6], 34%.

B12: Spiked Peptide 9 (YRSSRGEVQTCSERR) (peptide)
peptide: YRSSRGEVQTCSERR
notes: as for B1
As for B12, the “percent reduction in ELISA signal” value with Antibody No. 465.1 [1] came out at 3%; with Antibody No. 245.1 [2], 4%; with VSTB174 [3] it was 0%; with Antibody No. 465.1 [4], 10%; in the test with Antibody No. 245.1 [5] it was 0%; with VSTB174 [6] it was 0%.

B13: Spiked Peptide 5 (TCRLLGPVDKGHDVT) (peptide)
peptide: TCRLLGPVDKGHDVT
notes: as for B1
As for B13, the “percent reduction in ELISA signal” value with Antibody No. 465.1 [1] was 0%; with Antibody No. 245.1 [2] it was 7%; in the test with VSTB174 [3] it was 14%; with Antibody No. 465.1 [4], 12%; in the test with Antibody No. 245.1 [5] it was 9%; in the test with VSTB174 [6] it was 14%.

B14: Spiked Peptide 7 (GHDVTFYKTWYRSSR) (peptide)
peptide: GHDVTFYKTWYRSSR
notes: as for B1
Take B14: the “percent reduction in ELISA signal” value in the test with Antibody No. 465.1 [1] was determined as 0%; in the test with Antibody No. 245.1 [2] it was 12%; with VSTB174 [3] it was 8%; in the test with Antibody No. 465.1 [4], 26%; in the test with Antibody No. 245.1 [5], 26%; with VSTB174 [6], 30%.

B15: Spiked Peptide 6 (GPVDKGHDVTFYKTW) (peptide)
peptide: GPVDKGHDVTFYKTW
notes: as for B1
As to B15, the “percent reduction in ELISA signal” value in the test with Antibody No. 465.1 [1] is 0%; in the test with Antibody No. 245.1 [2], 3%; in the test with VSTB174 [3] it was 10%; in the test with Antibody No. 465.1 [4], 4%; in the test with Antibody No. 245.1 [5], 9%; with VSTB174 [6], 25%.

B16: Spiked Peptide 21 (MRNLTLLDSGLYCCL) (peptide)
peptide: MRNLTLLDSGLYCCL
notes: as for B1
As to B16, the “percent reduction in ELISA signal” value in the test with Antibody No. 465.1 [1] was 0%; in the test with Antibody No. 245.1 [2], 10%; with VSTB174 [3], 15%; with Antibody No. 465.1 [4], 22%; in the test with Antibody No. 245.1 [5], 4%; with VSTB174 [6] it was 38%.

B17: Spiked Peptide 20 (NFSITMRNLTLLDSG) (peptide)
peptide: NFSITMRNLTLLDSG
notes: as for B1
As for B17, the “percent reduction in ELISA signal” value in the test with Antibody No. 465.1 [1] was found to be 0%; in the test with Antibody No. 245.1 [2], 23%; with VSTB174 [3], 20%; in the test with Antibody No. 465.1 [4], 24%; with Antibody No. 245.1 [5], 28%; with VSTB174 [6], 42%.

B18: Spiked Peptide 2 (PYSLYVCPEGQNVTL) (peptide)
peptide: PYSLYVCPEGQNVTL
notes: as for B1
With B18, the “percent reduction in ELISA signal” value with Antibody No. 465.1 [1] was 0%; with Antibody No. 245.1 [2], 1%; with VSTB174 [3] it was 8%; with Antibody No. 465.1 [4], 1%; with Antibody No. 245.1 [5], 9%; in the test with VSTB174 [6], 3%.

B19: Spiked Peptide 13 (TFQDLHLHHGGHQAA) (peptide)
peptide: TFQDLHLHHGGHQAA
notes: as for B1
With B19, the “percent reduction in ELISA signal” value turned out to be 15% with Antibody No. 465.1 [1]; 3% with Antibody No. 245.1 [2]; 26% in the test with VSTB174 [3]; 36% with Antibody No. 465.1 [4]; 57% with Antibody No. 245.1 [5]; 81% with VSTB174 [6].

B20: Spiked Peptide 17 (LAQRHGLESASDHHG) (peptide)
peptide: LAQRHGLESASDHHG
notes: as for B1
Consider B20, for which the “percent reduction in ELISA signal” value in the test with Antibody No. 465.1 [1] amounted to 8%; in the test with Antibody No. 245.1 [2], 13%; with VSTB174 [3], 21%; with Antibody No. 465.1 [4] it was 7%; with Antibody No. 245.1 [5], 26%; in the test with VSTB174 [6] it was 46%.

B21: Spiked Peptide 23 (LYCCLVVEIRHHHSE) (peptide)
peptide: LYCCLVVEIRHHHSE
notes: as for B1
Turning to B21, the “percent reduction in ELISA signal” value in the test with Antibody No. 465.1 [1] was determined as 2%; in the test with Antibody No. 245.1 [2], 9%; in the test with VSTB174 [3], 31%; with Antibody No. 465.1 [4] it was 36%; with Antibody No. 245.1 [5], 37%; in the test with VSTB174 [6], 67%.

B22: Spiked Peptide 15 (GHQAANTSHDLAQRH) (peptide)
peptide: GHQAANTSHDLAQRH
notes: as for B1
With B22, the “percent reduction in ELISA signal” value in the test with Antibody No. 465.1 [1] came to 0%; in the test with Antibody No. 245.1 [2] it was 11%; with VSTB174 [3] it was 9%; with Antibody No. 465.1 [4], 3%; in the test with Antibody No. 245.1 [5] it was 0%; in the test with VSTB174 [6], 35%.

B23: Spiked Peptide 11 (CSERRPIRNLTFQDL) (peptide)
peptide: CSERRPIRNLTFQDL
notes: as for B1
B23: the “percent reduction in ELISA signal” value was determined as 0% with Antibody No. 465.1 [1]; 4% with Antibody No. 245.1 [2]; 10% with VSTB174 [3]; 8% with Antibody No. 465.1 [4]; 6% in the test with Antibody No. 245.1 [5]; 14% with VSTB174 [6].
